Measurements reported in patent US20040106555, “Neurogenin3 and production of pancreatic islet cells” (published 2004).

Assays:
[1] = target: T1, HNF3beta (FOXA2) (Rattus norvegicus, UniProt P32182 P32182:1-458); assay: EMSA; high affinity; proximal and distal sites compete equally; details: tags: pGEM-1 ratHNF3beta, TNT lysate; label: 32P
T1 sequence: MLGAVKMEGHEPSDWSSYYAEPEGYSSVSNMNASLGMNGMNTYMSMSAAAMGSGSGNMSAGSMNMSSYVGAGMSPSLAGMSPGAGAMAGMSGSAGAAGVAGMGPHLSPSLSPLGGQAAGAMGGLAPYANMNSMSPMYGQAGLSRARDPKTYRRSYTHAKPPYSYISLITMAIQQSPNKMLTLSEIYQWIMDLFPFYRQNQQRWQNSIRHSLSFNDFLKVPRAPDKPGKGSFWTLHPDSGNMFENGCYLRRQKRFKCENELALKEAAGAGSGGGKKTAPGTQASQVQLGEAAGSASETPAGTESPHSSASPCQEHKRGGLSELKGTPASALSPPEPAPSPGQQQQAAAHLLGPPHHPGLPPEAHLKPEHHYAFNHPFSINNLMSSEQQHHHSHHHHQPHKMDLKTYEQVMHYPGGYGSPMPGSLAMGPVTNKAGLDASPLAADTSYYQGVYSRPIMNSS
Description: (§1) Single-stranded oligonucleotides corresponding to the sequences in the human ngn3 promoter were 5′ end-labeled with [γ-³²P]-ATP using T4 polynucleotide kinase. The labeled oligonucleotides were column-purified and annealed to an excess of the complementary strand. For HNF3β and HNF 1α binding experiments, EMSA buffers and electrophoresis conditions were as previously described (Mirmira et al. J Biol Chem 275:14743-51, 2000). For HES-1 binding experiments, conditions were the same except that the poly(dI-dC) concentration was decreased to 15 ng/ul. One μl of the in vitro reaction mixture or 2 ug of nuclear extracts or 400 ng of GST-fused Hes1 protein were used for each binding reaction. When using antibodies, 1 μl of each antibody was incubated with the binding mix for 15 min at room temperature prior to gel-electrophoresis. The antisera against HNF-3α, -3β, and -3γ were a generous gift from R. Costa (University of Illinois) and the HES-1 antiserum was a generous gift from Y. Jan (University of California San Francisco). The anti-HNF-1α antiserum was purchased from Santa Cruz Biotechnology, Inc. […]

[2] = target: T1, HNF3beta (FOXA2); assay: EMSA; high affinity; details: tags: pGEM-1 ratHNF3beta, TNT lysate; label: 32P
Description: as §1

[3] = target: T2, E47/NeuroD1 heterodimer (UniProt P15923-2;Q60867 P15923-2:1-651,Q60867:1-357); assay: EMSA; strongest of four; details: tags: TNT reticulocyte lysate; label: 32P
Protocol: (§2) FIGS. 23A-23B are photographs of electromobility shift assays (EMSAs) showing that bHLH factors bind pancreatic promoter E boxes. EMSA were used to test the ability of E47, neurogenin3 and neuroD 1 to bind to labeled, double stranded oligonucleotides containing the E box sequences from the rat insulin I and mouse nkx2.2 promoters (23A) or the human PAX4 and NEUROG3 promoters (23B). 1 μl of each in vitro-translated protein was incubated with the indicated probes, either individually or in the combination shown. Results are typical of experiments done on three occasions.
(§3) Electromobility Shift Assays. Single stranded oligonucleotides were 5′-end labeled using (γ-32P) ATP and T4 polynucleotide kinase. An excess of complementary strand was then annealed to form a duplex strand that was column purified. EMSA buffers and electrophoresis conditions were as described above using 500 ng of poly(dIdC):poly(dIdC) per 10 ul binding mix. For in vitro produced protein, 1 μl of the 50 μl total reaction volume was used per binding mix.
(§4) Oligonucleotides used were as follows (coding strand shown from each double stranded pair): NEUROG3 promoter E element, 5′-[…]-3′; rat insulin I promoter E2 element, 5′-[…]-3′; PAX4 promoter E element, 5′-[…]-3′; nkx2.2 promoter E3 element 5′-[…]-3′. EMSA results are representative of those seen on at least 3 occasions.

[4] = target: T3, E47 (UniProt P15923-2 P15923-2:1-651); assay: EMSA; comparable affinity on all four probes; details: tags: TNT reticulocyte lysate; chain copies: 2 inferred; label: 32P
T3 sequence: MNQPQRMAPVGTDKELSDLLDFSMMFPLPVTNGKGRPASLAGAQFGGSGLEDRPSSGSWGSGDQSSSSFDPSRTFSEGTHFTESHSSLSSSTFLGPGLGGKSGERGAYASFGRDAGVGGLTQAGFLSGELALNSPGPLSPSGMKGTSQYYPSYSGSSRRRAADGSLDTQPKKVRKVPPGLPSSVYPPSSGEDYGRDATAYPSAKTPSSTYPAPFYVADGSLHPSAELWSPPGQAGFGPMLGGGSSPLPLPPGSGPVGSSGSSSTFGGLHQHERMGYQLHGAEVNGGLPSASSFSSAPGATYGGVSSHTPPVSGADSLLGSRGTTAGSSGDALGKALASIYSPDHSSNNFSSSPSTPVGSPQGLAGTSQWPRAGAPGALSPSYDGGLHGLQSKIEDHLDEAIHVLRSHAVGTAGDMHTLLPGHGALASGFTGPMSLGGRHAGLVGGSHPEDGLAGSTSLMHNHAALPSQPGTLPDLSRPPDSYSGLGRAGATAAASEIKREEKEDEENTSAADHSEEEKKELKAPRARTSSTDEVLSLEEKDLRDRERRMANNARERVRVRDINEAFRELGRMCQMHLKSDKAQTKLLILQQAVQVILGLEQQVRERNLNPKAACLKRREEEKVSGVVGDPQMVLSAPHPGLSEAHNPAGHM
Protocol: as §2, §3, §4

[5] = target: NeuroD1 (UniProt Q60867 Q60867:1-357); assay: EMSA; homodimer; details: tags: TNT reticulocyte lysate; chain copies: 2 stated; label: 32P
Protocol: as §2, §3, §4

[6] = target: T2, E47/NeuroD1 heterodimer; assay: EMSA; third of four; details: tags: TNT reticulocyte lysate; label: 32P
Protocol: as §2, §3, §4

[7] = target: T2, E47/NeuroD1 heterodimer; assay: EMSA; second strongest of four; details: tags: TNT reticulocyte lysate; label: 32P
Protocol: as §2, §3, §4

T2 sequence (Q60867 whole entry, one chain of several): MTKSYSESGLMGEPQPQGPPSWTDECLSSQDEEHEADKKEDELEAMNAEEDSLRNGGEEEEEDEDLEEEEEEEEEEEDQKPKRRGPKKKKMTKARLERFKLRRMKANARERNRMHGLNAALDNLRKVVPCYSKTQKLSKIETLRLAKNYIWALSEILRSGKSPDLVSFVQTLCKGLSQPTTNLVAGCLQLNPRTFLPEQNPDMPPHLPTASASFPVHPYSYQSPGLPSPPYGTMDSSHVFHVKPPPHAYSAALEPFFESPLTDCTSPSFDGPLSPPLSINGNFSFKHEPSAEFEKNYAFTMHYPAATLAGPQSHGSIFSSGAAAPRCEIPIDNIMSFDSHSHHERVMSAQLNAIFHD
Sequence of NeuroD1 (Q60867 whole entry, one chain of several): as above

B1: H3-2 (ngn3 promoter distal) (dsDNA)
DNA 1: TTATTATTATTTTAGCAAACACTGGAGACAG
DNA 2: CTGTCTCCAGTGTTTGCTAAAATAATAATAA
[1]
  binding result: binds

B2: H3-1 (ngn3 promoter proximal) (dsDNA)
DNA 1: GATCTCTCGAGAGAGCAAACAGCGCGGCGG
DNA 2: CCGCCGCGCTGTTTGCTCTCTCGAGAGATC
[2]
  binding result: binds

B3: PAX4 E box (dsDNA)
DNA 1: TGTATAATTGTGAGCAGATGGCGGGGGCTGGCGGC
DNA 2: GCCGCCAGCCCCCGCCATCTGCTCACAATTATACA
[3]
  binding result: binds
[4]
  binding result: binds

B4: nkx2.2 E3 (dsDNA)
DNA 1: TTATTACCGCTGAACATATGGCCAATATTTTGACT
DNA 2: AGTCAAAATATTGGCCATATGTTCAGCGGTAATAA
[5]
  binding result: binds
[6]
  binding result: binds
[4]
  binding result: binds

B5: rat insulin I E2 (dsDNA)
DNA 1: CTGCTTCATCAGGCCATCTGGCCCCTTGTTAATAA
DNA 2: TTATTAACAAGGGGCCAGATGGCCTGATGAAGCAG
[7]
  binding result: binds
[4]
  binding result: binds

B6: NEUROG3 E box (dsDNA)
DNA 1: CTTTGTCCGGAATCCAGCTGTGCCCTGCGGGGGAG
DNA 2: CTCCCCCGCAGGGCACAGCTGGATTCCGGACAAAG
[4]
  binding result: binds
